Experimental data published in IntAct's records for PubMed 23686307.

These substances were tested against tf65_human RELA (UniProt Q04206).

Substance | effect of a mutation on the interaction
Bromodomain-containing protein 4 (Homo sapiens) (from UniProt O60885) Y139A;N140A | decreasing interaction
Bromodomain-containing protein 4 (Homo sapiens) (from UniProt O60885) Y139A;N140A;Y432A;N433A | disrupting interaction
Bromodomain-containing protein 4 (Homo sapiens) (from UniProt O60885) Y432A;N433A | decreasing interaction
